Data taken from PMC3367187.
Like-named read-outs stand apart in the source and are kept apart here.

B1: ΔHBS_20_MBSp (ssRNA)
RNA: GGAGGUCCAAAGAGUGAGACUGACUAUACAACCUACUACCUCAACGUUACACU
B2: HBS_50_MBSp (ssRNA)
RNA: GGUAUUUAUUUAUUUAUUUGUUUGUUUGUUUUAUUGCUGUACGAGAGAGUCACUGUGCUGAUGUGGACUCAACAUCUGAUGAGCAACUAUACAACCUACUACCUCAACGUUACACU
B3: HBSMut_20_MBSp (ssRNA)
RNA: GGUAUAUAUGUCAUGCAUACGUAUGUGCGUAUCUACUAGGUCCAAAGAGUGAGACUGACUAUACAACCUACUACCUCAACGUUACACU

How the values were obtained:
Assay in all cases: EMSA
HuR (wild type) [1] = biological target: T1, HuR (wild type) (UniProt Q15717 1-326)
HuRΔH = HuRΔH (UniProt Q15717 1-326, del186-242)
HuR (wild type) [2] = biological target: T1, HuR (wild type); remark: listed apart in the source
HuRΔ3 = HuRΔ3 (UniProt Q15717 1-242, del243-326)

Binder | binding result (HuR (wild type) [1]) | binding result (HuRΔH) | binding result (HuR (wild type) [2]) | binding result (HuRΔ3)
B1 | no binding | – | – | –
B2 | – | binds | binds | binds
B3 | no binding | – | – | –
